# Experimental data as given in patent US20140274782A1, “AFFINITY REAGENTS AND METHODS FOR DETECTION, PURIFICATION, AND PROTEOMIC ANALYSIS OF METHYLATED PROTEINS” (The Board of Trustees of the Leland Stanford Junior …, priority 2013, published 2014).
# T1: over 100 distinct histone and non-histone peptides with different post-translational modifications (Homo sapiens, UniProt Q9Y468)
# T1 construct: made in house; host or cells: E. coli
# T1 sequence (Q9Y468 258-598): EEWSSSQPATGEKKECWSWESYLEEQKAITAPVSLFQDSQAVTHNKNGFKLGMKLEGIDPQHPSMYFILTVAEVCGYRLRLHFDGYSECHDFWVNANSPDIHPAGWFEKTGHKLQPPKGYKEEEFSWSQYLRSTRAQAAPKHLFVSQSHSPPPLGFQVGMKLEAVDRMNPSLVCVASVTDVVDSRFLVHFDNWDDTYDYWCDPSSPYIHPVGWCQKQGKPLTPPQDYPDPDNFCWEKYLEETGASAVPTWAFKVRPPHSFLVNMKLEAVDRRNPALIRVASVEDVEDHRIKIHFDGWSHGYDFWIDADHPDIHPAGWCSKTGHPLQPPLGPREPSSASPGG
# Key:
# [1] = target: T1, over 100 distinct histone and non-histone peptides with different post-translational modifications; assay: Peptide array probed with GST-3×MBT; type: binding; settings: FIG. 1E
# Procedure: Peptide pull-down assays were performed as previously described (Shi et al. (2006) Nature 442, 96-99), using 1 μg protein and 1 μg peptide per condition in binding buffer (50 mM Tris pH 7.5, 150 mM NaCl, 0.05% NP-40). Peptide arrays were performed as previously described (Bua et al., supra).
# [2] = test system: methylated histones (HeLa nucleosomes, calf thymus histones), p53K382me1, H3K9me2; assay: Far Western assay; type: binding
# Procedure: For Far Western assays, proteins were separated by SDS-PAGE and transferred to a PVDF membrane. Following blocking, membranes were incubated overnight with the indicated domain. Domain binding was determined using an epitope tag-specific antibody and appropriate HRP-conjugated secondary antibody.
# For Far Western assays on purified HeLa nucleosomes and calf thymus histones, the indicated amounts of nucleosome or histone were separated by SDS-PAGE and transferred to a PVDF membrane. The membrane was blocked in milk prepared with Tris-buffered saline with 0.1% Tween (TBST). Membranes were incubated overnight at 4° C. with 1 μg/ml of the indicated domain in TBST. Domain binding was determined using an epitope tag-specific antibody and appropriate HRP-conjugated secondary antibody.
# For the SET8/p53 Far Westerns, p53 was methylated in vitro as previously described (Kuo et al., 2011), with 5 μg enzyme and 1 μg substrate per 25 μl of reaction volume incubated at 30° C. overnight. Following the methylation reaction, PreScission Protease was added directly to the reaction mix and samples were incubated overnight at 4° C. Blotting was conducted as described above. G9a SET domain/recombinant H3 (New England BioLabs) samples were prepared similarly, without a GST cleavage step.
# [3] = test system: methylated proteins (H3, p53, RelA, SIRT1) in HeLa / 293T nuclear extract; assay: Protein pull-down from nuclear extract with GSH-Sepharose coupled domain, Western blot; type: binding
# Procedure: GSH-Sepharose coupled domain beads were generated for pull-down by incubating GSHSepharose resin with E. coli lysate containing sufficient 3×MBT for bead saturation. Bead-coupled 3×MBT was incubated with nuclear extract overnight and proteins that precipitated with the resin were analyzed by SDS-PAGE.
# Recombinant GST-SIRT1 was expressed by baculoviral transduction of the Sf9 insect cell line as previously described (Levy et al. (2011) Nat. Immunol. 12, 29-36). A panel of enzymes was tested for ability to methylate recombinant SIRT1 using ^3H-SAM in in vitro methylation reactions (Kuo et al. (2011) Mol. Cell 44, 609-620). SIRT1K622R was generated by site-directed mutagenesis (Stratagene). For the pull-down experiment, 293T cells were transfected with a 10:1 enzyme:substrate DNA ratio. 150 μg of nuclear proteins were used for pull-downs with 3×MBT or 3×MBTD355N coupled GSH-Sepharose as described above.
# GSH-Sepharose coupled domain beads were prepared for pull-down by expressing the domain in E. coli. Cells were lysed as described, and lysate was incubated overnight at 4° C. with GSH-Sepharose with a sufficient lysate-to-Sepharose ratio to result in Sepharose binding saturation. The GSH-Sepharose was then washed 3×5 minutes in binding buffer and resuspended in binding buffer to 50% slurry. 150 μg of nuclear proteins were incubated overnight at 4° C. with 15 μl 50% slurry of either 3×MBT or 3×MBTD355N coupled to GSH-Sepharose in binding buffer (total volume of about 150 μl). Beads were washed 3×5 minutes in 0.5 ml of binding buffer. Beads were boiled in 25 μl of 2× Laemmli buffer and supernatant was analyzed by SDS-PAGE and Western blotting.
# For SETD6/RelA and SET8/p53 pull-down experiments, 293T cells were transfected with a 1:1 enzyme:substrate DNA ratio. 150 μg of nuclear proteins were incubated overnight at 4° C. with 15 μl 50% slurry of either 3×MBT or 3×MBTD355N coupled to GSH-Sepharose in binding buffer. […] Laemmli buffer was added to the supernatant to 1×, and the resulting samples analyzed by SDS-PAGE and Western blotting.
# G9a SET domain = target: T2, G9a SET domain (Homo sapiens, UniProt Q96KQ7); assay: ProtoArray on-chip in vitro methylation, detected with 3xFlag-3xMBT; type: biochemical; settings: ProtoArrays bearing 9,500 recombinant human proteins
# T2 construct: 50 μg of GST or recombinant GSTtagged G9a SET domain and the cofactor SAM
# T2 sequence (Q96KQ7 1038-1155 limits assumed): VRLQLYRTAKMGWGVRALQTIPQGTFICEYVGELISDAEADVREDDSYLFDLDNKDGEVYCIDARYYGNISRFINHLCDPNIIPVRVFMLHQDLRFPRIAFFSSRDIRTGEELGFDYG
# Procedure: The assay was conducted as previously described (Levy et al. (2011) Epigenetics Chromatin 4, 19). Briefly, a ProtoArray (Invitrogen, version 5.0) was incubated overnight with 50 μg of GST or recombinant GSTtagged G9a SET domain and the cofactor SAM.
# Arrays were analyzed using GenePix Pro 6.1 software (Molecular Devices) and feature values were assigned to proteins using the array list provided by Invitrogen. We designated the following criteria for “hits”: GST array signal-to-noise ratio (SNR) less than or equal to 1.5, G9a array SNR greater than or equal to 10, and a difference between the G9a array SNR and the GST array SNR of greater than or equal to 12. Hits were individually visually validated. Proteins were removed from the list of potential substrates if irregular array features appeared to interfere with the array spots or SNR calculations.
molecule,measurement,setting,value
"3×MBT: three MBT repeats of L3MBTL1 (amino acids 190-530 of accession NP—056293.4), expressed as GST or Flag fusion; methyl-lysine affinity reagent (protein, left off: a dimerising Fc or GST) EEWSSSQPATGEKKECWSWESYLEEQKAITAPVSLFQDSQAVTHNKNGFKLGMKLEGIDPQHPSMYFILTVAEVCGYRLRLHFDGYSECHDFWVNANSPDIHPAGWFEKTGHKLQPPKGYKEEEFSWSQYLRSTRAQAAPKHLFVSQSHSPPPLGFQVGMKLEAVDRMNPSLVCVASVTDVVDSRFLVHFDNWDDTYDYWCDPSSPYIHPVGWCQKQGKPLTPPQDYPDPDNFCWEKYLEETGASAVPTWAFKVRPPHSFLVNMKLEAVDRRNPALIRVASVEDVEDHRIKIHFDGWSHGYDFWIDADHPDIHPAGWCSKTGHPLQPPLGPREPSSASPGG","binding to unmodified peptides, tri-methylated lysine peptides or peptides with other PTMs on peptide array",[1],did not bind
same,number of peptides containing mono- and di-methylated lysine bound on peptide array,[1]; array of over 100 unique peptides,41
same,Far Western detection of recombinant H3 dimethylated at lysine 9 (H3K9me2) by G9a SET domain,[2],specifically detects
same,Far Western detection of recombinant p53 mono-methylated at lysine 382 by SET8,[2],detected
same,Far Western detection of histones,[2]; purified HeLa nucleosomes and calf thymus histones,detected
same,precipitation of 3× Flag-SIRT1,"[3]; 293T cells, only when G9a is co-expressed and K622 is intact",specifically precipitated
same,precipitation of methylated proteins H3 and p53,[3]; HeLa nuclear extract,precipitates
same,precipitation of methylated RelA,[3]; nuclear extract of 293T cells co-expressing SETD6 and RelA,precipitates
same,number of proteins detected on the G9a-methylated array but not on the control array,G9a SET domain,112
